Assay results published in patent US20060110401A1, “Mixture of peptides from c and ns3 proteins of the hepatitis c virus and applications thereof” (priority 2002, published 2006).
No end group written: not given here.

B1: 9N 1036-1055, P26664 1036-1055 (peptide)
peptide: TRGLLGCIITSLTGRDKNQV
modifications: not checked
B2: 29N 1569-1583 (peptide)
peptide: DAHFLSQTKQSGENL
modifications: not checked
B3: 9N 1041-1055 (peptide)
peptide: GCIITSLTGRDKNQV
modifications: not checked
B4: 13N 1127-1153 (peptide)
chain: SSDLYLVTRHADVIPVRRRGDSRGSLL
B5: 1C 19-47 (peptide)
chain: PQDVKFPGGGQIVGGVYLLPRRGPRLGVR
B6: 19N 1275-1304 (peptide)
chain: DPNIRTGVRTITTGSPITYSTYGKFLADGG
B7: 27N 1495-1513 (peptide)
chain: KPGIYRFVAPGERPSGMFD
B8: 8N 1007-1037 (peptide)
chain: GREILLGPADGMVSKGWRLLAPITAYAQQTR
B9: 17N 1206-1239 (peptide)
chain: RSPVFTDNSSPPVVPQSFQVAHLHAPTGSGKSTK
B10: 18N 1246-1275 (peptide)
chain: AQGYKVLVLNPSVAATLGFGAYMSKAHGID
B11: 10N 1052-1072 (peptide)
chain: KNQVEGEVQIVSTAAQTFLAT
B12: 22N 1362-1387 (peptide)
chain: IEEVALSTTGEIPFYGKAIPLEVIKG
B13: 2C 31-57 (peptide)
chain: VGGVYLLPRRGPRLGVRATRKTSERSQ
B14: 24N 1404-1432 (peptide)
chain: AAKLVALGINAVAYYRGLDVSVIPTSGDV
B15: 15N 1174-1195 (peptide)
chain: GHAVGIFRAAVCTRGVAKAVDF
B16: B1 21-36 (nonbiotinylated) (peptide)
peptide: TERVRLVTRHIYNREE
modifications: not fully specified
B17: 3C 93-107 (peptide)
peptide: WAGWLLSPRGSRPSW
modifications: not checked

Molecular target: T1, HLA-DR7 (DRB1*0701) (human)
T1 chain 1: not shown
T1 chain 2: not shown
Test: competition ELISA, purified HLA II; tracer biotinylated YKL
Conditions: not given

In order of falling IC50:
1. B2  3000 nM
2. B1  2600 nM

Molecular target: T2, HLA-DR3 (DRB1*0301) (human)
T2 chain 1: not shown
T2 chain 2: not shown
Test: competition ELISA, purified HLA II; tracer biotinylated MT 2-16
Conditions: not given

B3 showed an IC50 of 62500 nM.

Molecular target: T3, HLA-DRB4 (DRB4*0101) (human)
T3 chain 1: not shown
T3 chain 2: not shown
Test: competition ELISA, purified HLA II; tracer biotinylated E2/E168
Conditions: not given

In order of rising IC50:
1. B1  1000 nM
2. B3  65000 nM

Molecular target: T4, HLA-DR15 (DRB1*1501) (human)
T4 chain 1: not shown
T4 chain 2: not shown
Test: competition ELISA, purified HLA II; tracer biotinylated A3 152-166
Conditions: not given

In order of rising IC50:
1. B3  525 nM
2. B2  2800 nM
3. B1  5500 nM

The binders below were run against HLA-DR3 (DRB1*0301) (human) (assay: competition binding). Conditions: chains peptide; modification not given.

B4 and B5 cannot be ordered by IC50: > 100000 nM for the first, > 100000 nM for the second.

B6 and B7 cannot be ordered by IC50: > 100000 nM for the first, > 100000 nM for the second.

In the case of B8, the IC50 is reported as 200 nM.

These binders were tested against HLA-DRB5 (DRB5*0101) (human) (assay: competition binding). Conditions: chains peptide; modification not given.

In order of falling IC50:
1. B10  1250 nM
2. B4  500 nM
3. B9  350 nM
4. B5  9 nM
5. B7  2 nM

Each binder was assayed against HLA-DR1 (DRB1*0101) (human) (assay: competition binding). Conditions: chains peptide; modification not given.

In order of falling IC50:
1. B4  700 nM
2. B11  400 nM
3. B5  350 nM
4. B7  163 nM
5. B6  150 nM
6. B12  33 nM
7. B10  1 nM

The binders below were run against HLA-DRB3 (DRB3*0101) (human) (assay: competition binding). Conditions: chains peptide; modification not given.

Compared with B10, B11 is lower in IC50: > 30000 nM for the first, 10000 nM for the second. The second is the more potent here.

B4 and B5 cannot be ordered by IC50: > 10000 nM for the first, > 100000 nM for the second.

First: B6
Second: B7
The IC50 of the first is 270-fold lower: 150 nM for the first, 40000 nM for the second. The first is the more potent here.

What follows are binders tested against HLA-DR11 (DRB1*1101) (human) (assay: competition binding). Conditions: chains peptide; modification not given.

In order of falling IC50:
1. B9  550 nM
2. B11  200 nM
3. B5  58 nM
4. B10  40 nM
5. B4  17 nM
6. B8  1 nM

Each binder was assayed against HLA-DR13 (DRB1*1301) (human) (assay: competition binding). Conditions: chains peptide; modification not given.

Compared with B9, B10 is lower in IC50: > 100000 nM for the first, 900 nM for the second.

Going from B4 to B6, the IC50 rises from 300 nM to > 100000 nM.

Going from B7 to B8, the IC50 falls from > 100000 nM to 1250 nM. The second is the more potent here.

What follows are binders tested against HLA-DR15 (DRB1*1501) (human) (assay: competition binding). Conditions: chains peptide; modification not given.

In order of falling IC50:
1. B9  10000 nM
2. B6  550 nM
3. B7  150 nM
4. B10  58 nM
5. B8  30 nM

Each binder was assayed against HLA-DR4 (DRB1*0401) (human) (assay: competition binding). Conditions: chains peptide; modification not given.

In order of falling IC50:
1. B5  70000 nM
2. B4  3500 nM
3. B7  1250 nM
4. B6  500 nM
5. B9  425 nM
6. B8  10 nM
7. B10  5 nM

Each binder was assayed against HLA-DRB4 (DRB4*0101) (human) (assay: competition binding). Conditions: chains peptide; modification not given.

In order of falling IC50:
1. B5  6000 nM
2. B6  3500 nM
3. B11  400 nM
4. B7  138 nM
5. B8  60 nM

The binders below were run against HLA-DR7 (DRB1*0701) (human) (assay: competition binding). Conditions: chains peptide; modification not given.

In order of falling IC50:
1. B4  17 nM
2. B11  7 nM

These binders were tested against HLA-DP402 (DPB1*0402) (human), P20036 (assay: competition binding). Conditions: chains peptide; modification not given.

B13 and B7 cannot be ordered by IC50: > 100000 nM for the first, > 100000 nM for the second.

Work on B14 yielded an IC50 of 7040 nM.

Molecular target: T5, HLA-DP401 (DPB1*0401) (human), P20036
T5 chain 1: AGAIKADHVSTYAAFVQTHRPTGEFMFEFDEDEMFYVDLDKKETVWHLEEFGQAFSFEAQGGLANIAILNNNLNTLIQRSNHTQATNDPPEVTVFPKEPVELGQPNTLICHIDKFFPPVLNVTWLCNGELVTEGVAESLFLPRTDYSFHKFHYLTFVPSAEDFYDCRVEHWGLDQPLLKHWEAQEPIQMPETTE
T5 chain 2: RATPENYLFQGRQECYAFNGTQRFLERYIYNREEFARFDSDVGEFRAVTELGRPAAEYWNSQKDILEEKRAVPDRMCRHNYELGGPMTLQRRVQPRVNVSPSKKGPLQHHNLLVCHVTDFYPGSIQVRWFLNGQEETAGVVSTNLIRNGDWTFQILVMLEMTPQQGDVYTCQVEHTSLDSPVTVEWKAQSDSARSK
Test: competition binding
Conditions: chains peptide; modification not given

B13 and B10 cannot be ordered by IC50: > 100000 nM for the first, > 100000 nM for the second.

B4 and B7 cannot be ordered by IC50: > 100000 nM for the first, > 100000 nM for the second.

Going from B14 to B15, the IC50 falls from 32700 nM to 17800 nM (1.8-fold).

Molecular target: T6, HLA-DR13 (DRB1*1301) (human)
T6 chain 1: not shown
T6 chain 2: not shown
Test: competition ELISA, purified HLA II; unlabeled peptide against its own biotinylated tracer
Conditions: not given

In the case of B16, the IC50 is reported as 330 nM.

Molecular target: T7, HLA-DR4 (DRB1*0401) (human)
T7 chain 1: not shown
T7 chain 2: not shown
Test: competition ELISA, purified HLA II; tracer biotinylated HA 306-318
Conditions: not given

In order of falling IC50:
1. B2  10500 nM
2. B3  2900 nM
3. B1  950 nM

Molecular target: T8, HLA-DR1 (DRB1*0101) (human)
T8 chain 1: not shown
T8 chain 2: not shown
Test: as above
Conditions: not given

In order of falling IC50:
1. B17  6330 nM
2. B2  950 nM
3. B3  190 nM
4. B1  51 nM
5. B8  2 nM

Molecular target: T9, HLA-DRB5 (DRB5*0101) (human)
T9 chain 1: not shown
T9 chain 2: not shown
Test: as above
Conditions: not given

In order of falling IC50:
1. B2  21000 nM
2. B1  53 nM
3. B3  11 nM

Molecular target: T10, HLA-DR11 (DRB1*1101) (human)
T10 chain 1: not shown
T10 chain 2: not shown
Test: as above
Conditions: not given

In order of rising IC50:
1. B2  22 nM
2. B1  700 nM
3. B3  2600 nM
